Measurements from patent US11278600B2, “Human alpha-galactosidase variants” (Codexis, Inc., priority 2014, dated 2022).

Key:
Type in all cases: biochemical
[1] = HTP-analysis of yeast culture supernatants, no challenge (MUGal hydrolysis); conditions: activity of the variant/activity of WT GLA (SEQ ID NO: 5), yeast supernatant
In short: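 Activity read as 4-methylumbelliferyl α-D-galactopyranoside hydrolysis: fluorescence (355/448 nm) after sodium carbonate stop, following 30-180 min at 37° C with 2 mM MUGal stock at pH 4.6–4.8. Enzyme source is unchallenged culture supernatant of INVSc1 yeast expressing GLA variants, grown 66-84 h at 30° C.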

[2] = HTP-analysis of supernatants pretreated with acid (MUGal hydrolysis); conditions: challenge at pH 4.2; activity of the variant/activity of WT GLA (SEQ ID NO: 5); yeast supernatant
In short: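 GLA variants were secreted from INVSc1 yeast grown 66-84 h at 30° C. in SD-Ura with 2% glucose; supernatants were mixed with McIlvaine buffer pH 3.3-4.3 and held at 37° C. for 1-3 h. Residual activity on MUGal at pH 4.8 was then measured by fluorescence.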

[3] = HTP-analysis of supernatants pretreated with base (MUGal hydrolysis); conditions: challenge at pH 7.1; activity of the variant/activity of WT GLA (SEQ ID NO: 5); yeast supernatant
In short: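 GLA variants were secreted by transformed INVSc1 yeast grown 66-84 h at 30° C. Supernatants were exposed to neutral-to-basic buffers (pH 7.0-9.7) at 37° C for 1-18 h, then assayed with MUGal in acidic citrate/McIlvaine buffer, with fluorescence read after quenching.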

B1: 170 (protein)
chain: LDNGLARTPTMGWLHWERFMCNLDCQEEPDSCISEKLFMEMAELMVSEGWKDAGYEYLCIDDCWMAPQRDSEGRLQADPQRFPHGIRQLANYVHSKGLKLGIYADVGNKTCAGFPGSFGYYDIDAQTFADWGVDLLKFDGCYCDSLENLADGYKHMSLALNRTGRSIVYSCEWPLYMWPFQKPNYTEIRQYCNHWRNFADIDDSWKSIKSILDWTSFNQERIVDVAGPGGWNDPDMLVIGNFGLSWNQQVTQMALWAIMAAPLFMSNDLRHISPQAKALLQDKDVIAINQDPLGKQGYQLRQGDNFEVWERPLSGLAWAVAMINRQEIGGPRSYTIAVASLGKGVACNPACFITQLLPVKRKLGFYEWTSRLRSHINPTGTVLLQLENTMQMEKDLLL
modifications: Synthetic Polypeptide sequence of Variant No. 170 of mature Human GLA
With B1 the “Relative Activity of GLA Variants After No Challenge (NC)” value [1] was “++ (++ = >1.5 to 2.5 relative activity over WT GLA (SEQ ID NO: 5))”, the “Relative Activity of GLA Variants After Challenge at pH 4.2” value (from here on “Relative Activity … at pH 4.2”) [2] was “++ (++ = >1.5 to 2.5 relative activity over WT GLA (SEQ ID NO: 5))” and the “Relative Activity of GLA Variants After Challenge at pH 7.1” value (shortened to “Relative Activity … at pH 7.1”) [3] was “++ (++ = >1.5 to 2.5 relative activity over WT GLA (SEQ ID NO: 5))”.

B2: 173 (protein)
chain: LDNGLARTPTMGWLHWERFMCNLDCQEEPDSCISEKLFMEMAELMVSEGWKDAGYEYLCIDDCWMAPQRDSEGRLQADPQRFPHGIRQLANYVHSKGLKLGIYADVGNKTCAGFPGSFGYYDIDAQTFADWGVDLLKFDGCYCDSLENLADGYKHMSLALNRTGRSIVYSCEWPLYMWPFQKPNYTEIRQYCNHWRNFADIDDSWKSIKSILDWTSFNQERIVDVAGPGGWNDPDMLVIGNFGLSWNQQVTQMALWAIMAAPLFMSNDLRHISPQAKALLQDKDVIAINQDPLGKQGYQLRQGDNFEVWERPLSGLAWAVAMINRQEIGGPRSYTIAVASLGKGVACNPACFITQLLPVKRKLGFYEWTSRLRSHINPTGTVLLQLENTMQMPKDLLL
modifications: Synthetic Polypeptide sequence of Variant No. 173 of mature Human GLA
In the case of B2, the “Relative Activity of GLA Variants After No Challenge (NC)” value [1] is reported as “++ (++ = >1.5 to 2.5 relative activity over WT GLA (SEQ ID NO: 5))”, the “Relative Activity … at pH 4.2” value [2] is reported as “++ (++ = >1.5 to 2.5 relative activity over WT GLA (SEQ ID NO: 5))” and the “Relative Activity … at pH 7.1” value [3] is reported as “++ (++ = >1.5 to 2.5 relative activity over WT GLA (SEQ ID NO: 5))”.

B3: 176 (protein)
chain: LDNGLARTPTMGWLHWERFMCNLDCQEEPDSCISEKLFMEMAELMVTEGWKDAGYEYLCIDDCWMAPQRDSEGRLQADPQRFPHGIRQLANYVHSKGLKLGIYADVGNKTCAGFPGSFGYYDIDAQTFADWGVDLLKFDGCYCDSLENLADGYKHMSLALNRTGRSIVYSCEWPLYMWPFQKPNYTEIRQYCNHWRNFADIDDSWKSIKSILDWTSFNQERIVDVAGPGGWNDPDMLVIGNFGLSWNQQVTQMALWAIMAAPLFMSNDLRHISPQAKALLQDKDVIAINQDPLGKQGYQLRQGDNFEVWERPLSGLAWAVAMINRQEIGGPRSYTIAVASLGKGVACNPACFITQLLPVKRKLGFYEWTSRLRSHINPTGTVLLQLENTMQMSKDLLL
modifications: Synthetic Polypeptide sequence of Variant No. 176 of mature Human GLA
With B3 the “Relative Activity of GLA Variants After No Challenge (NC)” value [1] was “+ (+ = 0.5 to 1.5 relative activity over WT GLA (SEQ ID NO: 5))”, the “Relative Activity … at pH 4.2” value [2] was “+ (+ = 0.5 to 1.5 relative activity over WT GLA (SEQ ID NO: 5))” and the “Relative Activity … at pH 7.1” value [3] was “+ (+ = 0.5 to 1.5 relative activity over WT GLA (SEQ ID NO: 5))”.

B4: 172 (protein)
chain: LDNGLARTPTMGWLHWERFMCNLDCQEEPDSCISEKLFMEMAELMVSEGWKDAGYEYLCIDDCWMAPQRDSEGRLQADPQRFPHGIRQLANYVHSKGLKLGIYADVGNKTCAGFPGSFGYYDIDAQTFADWGVDLLKFDGCYCDSLENLADGYKHMSLALNRTGRSIVYSCEWPLYMWPFQKPNYTEIRQYCNHWRNFADIDDSWKSIKSILDWTSFNQERIVDVAGPGGWNDPDMLVIGNFGLSWNQQVTQMALWAIMAAPLFMSNDLRHISPQAKALLQDKDVIAINQDPLGKQGYQLRQGDNFEVWERPLSGLAWAVAMINRQEIGGPRSYTIAVASLGKGVACNPACFITQLLPVKRKLGFYEWTSRLRSHINPTGTVLLQLENTMQMHKDLLL
modifications: Synthetic Polypeptide sequence of Variant No. 172 of mature Human GLA
For B4, the “Relative Activity of GLA Variants After No Challenge (NC)” value [1] was “+ (+ = 0.5 to 1.5 relative activity over WT GLA (SEQ ID NO: 5))”, the “Relative Activity … at pH 4.2” value [2] was “+ (+ = 0.5 to 1.5 relative activity over WT GLA (SEQ ID NO: 5))” and the “Relative Activity … at pH 7.1” value [3] was “+ (+ = 0.5 to 1.5 relative activity over WT GLA (SEQ ID NO: 5))”.

B5: 177 (protein)
chain: LDNGLARTPTMGWLHWERFMCNLDCQEEPDSCISEKLFMEMAELMVSEGWKDAGYEYLCIDDCWMAPQRDSEGRLQADPQRFPHGIRQLANYVHDKGLKLGIYADVGNKTCAGFPGSFGYYDIDAQTFADWGVDLLKFDGCYCDSLENLADGYKHMSLALNRTGRSIVYSCEWPLYMWPFQKPNYTEIRQYCNHWRNFADIDDSWKSIKSILDWTSFNQERIVDVAGPGGWNDPDMLVIGNFGLSWNQQVTQMALWAIMAAPLFMSNDLRHISPQAKALLQDKDVIAINQDPLGKQGYQLRQGDNFEVWERPLSGLAWAVAMINRQEIGGPRSYTIAVASLGKGVACNPACFITQLLPVKRKLGFYEWTSRLRSHINPTGTVLLQLENTMQMSKDLLL
modifications: Synthetic Polypeptide sequence of Variant No. 177 of mature Human GLA
In the case of B5, the “Relative Activity of GLA Variants After No Challenge (NC)” value [1] is reported as “+ (+ = 0.5 to 1.5 relative activity over WT GLA (SEQ ID NO: 5))”, the “Relative Activity … at pH 4.2” value [2] is reported as “++ (++ = >1.5 to 2.5 relative activity over WT GLA (SEQ ID NO: 5))” and the “Relative Activity … at pH 7.1” value [3] is reported as “+ (+ = 0.5 to 1.5 relative activity over WT GLA (SEQ ID NO: 5))”.

B6: 174 (protein)
chain: LDNGLARTPTMGWLHWERFMCNLDCQEEPDSCISEKLFMEMAELMVIEGWKDAGYEYLCIDDCWMAPQRDSEGRLQADPQRFPHGIRQLANYVHSKGLKLGIYADVGNKTCAGFPGSFGYYDIDAQTFADWGVDLLKFDGCYCDSLENLADGYKHMSLALNRTGRSIVYSCEWPLYMWPFQKPNYTEIRQYCNHWRNFADIDDSWKSIKSILDWTSFNQERIVDVAGPGGWNDPDMLVIGNFGLSWNQQVTQMALWAIMAAPLFMSNDLRHISPQAKALLQDKDVIAINQDPLGKQGYQLRQGDNFEVWERPLSGLAWAVAMINRQEIGGPRSYTIAVASLGKGVACNPACFITQLLPVKRKLGFYEWTSRLRSHINPTGTVLLQLENTMQMSKDLLL
modifications: Synthetic Polypeptide sequence of Variant No. 174 of mature Human GLA
For B6, the “Relative Activity of GLA Variants After No Challenge (NC)” value [1] was “+ (+ = 0.5 to 1.5 relative activity over WT GLA (SEQ ID NO: 5))”, the “Relative Activity … at pH 4.2” value [2] was “+ (+ = 0.5 to 1.5 relative activity over WT GLA (SEQ ID NO: 5))” and the “Relative Activity … at pH 7.1” value [3] was “+ (+ = 0.5 to 1.5 relative activity over WT GLA (SEQ ID NO: 5))”.

B7: 175 (protein)
chain: LDNGLARTPTMGWLHWERFMCNLDCQEEPDSCISEKLFMEMAELMVREGWKDAGYEYLCIDDCWMAPQRDSEGRLQADPQRFPHGIRQLANYVHSKGLKLGIYADVGNKTCAGFPGSFGYYDIDAQTFADWGVDLLKFDGCYCDSLENLADGYKHMSLALNRTGRSIVYSCEWPLYMWPFQKPNYTEIRQYCNHWRNFADIDDSWKSIKSILDWTSFNQERIVDVAGPGGWNDPDMLVIGNFGLSWNQQVTQMALWAIMAAPLFMSNDLRHISPQAKALLQDKDVIAINQDPLGKQGYQLRQGDNFEVWERPLSGLAWAVAMINRQEIGGPRSYTIAVASLGKGVACNPACFITQLLPVKRKLGFYEWTSRLRSHINPTGTVLLQLENTMQMSKDLLL
modifications: Synthetic Polypeptide sequence of Variant No. 175 of mature Human GLA
In the case of B7, the “Relative Activity of GLA Variants After No Challenge (NC)” value [1] is reported as “+ (+ = 0.5 to 1.5 relative activity over WT GLA (SEQ ID NO: 5))”, the “Relative Activity … at pH 4.2” value [2] is reported as “++ (++ = >1.5 to 2.5 relative activity over WT GLA (SEQ ID NO: 5))” and the “Relative Activity … at pH 7.1” value [3] is reported as “+ (+ = 0.5 to 1.5 relative activity over WT GLA (SEQ ID NO: 5))”.

B8: 171 (protein)
chain: LDNGLARTPTMGWLHWERFMCNLDCQEEPDSCISEKLFMEMAELMVSEGWKDAGYEYLCIDDCWMAPQRDSEGRLQADPQRFPHGIRQLANYVHSKGLKLGIYADVGNKTCAGFPGSFGYYDIDAQTFADWGVDLLKFDGCYCDSLENLADGYKHMSLALNRTGRSIVYSCEWPLYMWPFQKPNYTEIRQYCNHWRNFADIDDSWKSIKSILDWTSFNQERIVDVAGPGGWNDPDMLVIGNFGLSWNQQVTQMALWAIMAAPLFMSNDLRHISPQAKALLQDKDVIAINQDPLGKQGYQLRQGDNFEVWERPLSGLAWAVAMINRQEIGGPRSYTIAVASLGKGVACNPACFITQLLPVKRKLGFYEWTSRLRSHINPTGTVLLQLENTMQMGKDLLL
modifications: Synthetic Polypeptide sequence of Variant No. 171 of mature Human GLA
For B8, the “Relative Activity of GLA Variants After No Challenge (NC)” value [1] was “++ (++ = >1.5 to 2.5 relative activity over WT GLA (SEQ ID NO: 5))”, the “Relative Activity … at pH 4.2” value [2] was “++ (++ = >1.5 to 2.5 relative activity over WT GLA (SEQ ID NO: 5))” and the “Relative Activity … at pH 7.1” value [3] was “++ (++ = >1.5 to 2.5 relative activity over WT GLA (SEQ ID NO: 5))”.
